Assay results: doi:10.1101/2024.03.09.584257

Target: ICP1 Cas1 (Vibrio cholerae phage ICP1_2011_A)

## ICP1 Cas1 (natural protein)
  stoichiometry N: 2
